Measured values taken from patent US8575110B2, “Peptidic nanoparticles as drug delivery and antigen display systems” (Alpha-O Peptides G, priority 2003, dated 2013).

Assay: Analytical ultracentrifugation (AUC) of assembled peptidic nanoparticles
Format: physicochemical

Row | Molecule | No. of monomers (Example 5 preparation 1 (dissolved directly, 2 mM DTT), 0.3 mg/ml) | No. of monomers (Example 5 preparation 1 (dissolved directly, 2 mM DTT), 0.6 mg/ml) | No. of monomers (Example 5 preparation 1 (dissolved directly, 2 mM DTT), 1.2 mg/ml) | No. of monomers (Example 5 preparation 2 (refolded from 8 M urea), 0.24 mg/ml) | No. of monomers (Example 5 preparation 2 (refolded from 8 M urea), 0.4 mg/ml) | No. of monomers (Example 5 preparation 2 (refolded from 8 M urea), 1.2 mg/ml) | No. of monomers (Example 5 preparation 2 (refolded from 8 M urea), concentration independent, one even unit) | No. of monomers (Example 4 preparation 1 (no DTT), 0.2 mg/ml) | No. of monomers (Example 4 preparation 2 (2 mM DTT), 0.2 mg/ml)
1 | Trimer(Foldon)Cys11—Linker—COMP (protein) GSGYIPEAPRCGQAYVRKDGEWVLLSTFLGGSGLAPQMLRELQETNAALQDVRELLRQQVKQITFLKNTVMECDACG | 10.1 | 9.8 | 11.3 | 15.1 | 14.3 | 14.8 | 15 |  | 
2 | Trimer(Foldon)Cys11—COMP (protein, Recombinant foldon, two-glycine linker, COMP peptide; residue Asp 11 replaced by a cystein residue) GSGYIPEAPRCGQAYVRKDGEWVLLSTFLGGLAPQMLRELQETNAALQDVRELLRQQVKQITFLKNTVMECDACG |  |  |  |  |  |  |  | 9.0 | 11.2
